Data taken from article PMC6191154.

These substances were tested against labelled Vip3Aa protoxin (MST) (Bacillus thuringiensis (strain Bt9816C)) (assay: MST; 10 nM labelled Vip3Aa kept constant, Sf-SR-C protein fragments titrated 0.3 nM to 10 μM, 20 min at RT; 25 mM Hepes pH 7.5, 150 mM NaCl, 0.05% Tween-20; 25 °C; fitted to the Hill equation; three independent experiments).

In order of rising Kd:
1. extracellular sequence of Sf-SR-C (aa 20-558) with a glutathione-S-transferase tag (GST-SR-C-N) (domain or fragment)  190 nM
2. GST-SR-F-2 (Sf-SR-C aa 139-320, the MAM domain) (domain or fragment)  463 nM
3. Sf-CCP (CCP domain of Sf-SR-C (aa 20-80) with a His-tag) (domain or fragment)  2190 nM
